Reference: US20120141527A1
* marks the point of attachment. FITC = O=C1OC2(c3ccc(O)cc3Oc3cc(O)ccc32)c2ccc(NC(=S)*)cc21; βAla = NCCC(=O)O

Target: doubly-mutant HR1 peptides
Test: native PAGE complex assembly assay, densitometry of fluorescence scans

B1: FITC-SAH-gp41(626-662)(A, F) (peptide)
peptide: {FITC-βAla}-LTWAEWDAEINNYTSLIHSLIEESQNQAEKNAQELLE-NH2
modifications: staple (positions not given here); also: two hydrocarbon staples from S5 residues, positions not given here
fold enhancement in binding activity compared to FITC-T649v: < 2 fold
